Data published in a protein production outcome set (Wang et al. 2014).

Assay: label from the status in PepcDB records

Row | Sequence | protein production
1 | MEISSGGSGMATRARGVVRDGTRALVLAVVGLPGALVLYVLAVVSLLLVPLGVGIVTTPWVLAGVRGFADWRRVVAAEWCGVRIPSGYRPVPVDANPWGRCFRLLSDRATWRDLIWLQVDMTAGFVTALLPAALLFYPLEGFALAAGLWRVFTDGTYIGWWYAFVPVSGQASALAAGALGVVFLVASYHLTPSLLRVHFLLTRAVLAPGQGELAERVRVLTETRRAAVDTSAAELRRIERDLHDGAQARLVAMGMDLGTIEALIEKDPAKARELLARARKSSADALTELRDLVRGIHPPVLAERGLGDAVRALALRVPIASEVNVDFDGRRAAAPVESAAYFAVSEVLTNAVKHAGADRVWIDLRHSDGMLRIAVTDNGRGGARIGTGSGLAGIERRLGTFDGVLAVSSPAGGPTMVSLEIPCELS | failed
2 | MSLNRVFIVDDDTLTCNLLKTIVEPIFGNVEAFQHPRAFLTLSLNKQDIIILDLMMPDMDGIEVIRHLAEHKSPASLILISGYDSGVLHSAETLALSCGLNVINTFTKPINTEVLTCFLTSLSNRQAEGHHHHHH | not failed
3 | MIANNIIPIIFLLIIVYGMFKGRKVYEWFLEGAKEGLMVCVKIFPALLAMMIAIRIFKDANLLNYLNNLLEPIVSLIGLPKDIVPLVLIKPLSGSGALGVYTELINTLGPDTREGLISSVIMGGTETIFYTITVYFGAVGIKKIRHTFWAALMADITAIIMAVLVVSMFFGL | failed
4 | MKRVPWVVGGLILIMAYNAALGTLAYWQRRDIIDESLREAVVVADILVREVEANLDRIDRTLSGLTEVLRAYPSAIDVHDPFTHRLLLRRHAITPSLAALFLIGGDGRLRNASLTDKVSEIDVSGEDYFAFHLSNVDDEFFIGAVTTNRLDKSWVIPVSRAVRDSFGRLTGVVAATITTDSIDQMIHSHQLSEGFAVTITQRDAGMIGCLGFTRCWGEGAPHRGDEGLAESGGSGEEVHYLPNGPGVGAFLRGPTYGVEVTVQASDRTLLQPWREKLAFILVLQVFGTLGLGFGITSLYYQMHHRRVSLLDLERANASLESKVAERTRQLAEGEERMRGFIMAARDAVVIIDQKGIISEFNPSATELFGYDVEEVRGQSVNMLMPATYARDHDGHLRKGKPSGQRAIGRGREMIGRRKNGSEFPIELTVGTQSFDGTRVHIGVIRDITERKATEETLRRLANIDGLTGVLNRRSFTEESELLLSLANRHGRRLSMMIVDADHFKGVNDTYGHDAGDRVLKALTGEIAGVLRKTDLLGRIGGEEFAILLPETDQEGAEGLAWRVVLAIRALEVPLPEGGVLKVTVSVGVSCRNTEAATFDWMLKEADTALYAAKHGGRDRVACFGQTQSVARS | failed
5 | DFRASATRPFTGEEYLASLRDDREIYIYGDRVKDVTSHPAFRNAAASMARLYDALHDPQSKEKLCWETDTGNGGYTHKFFRYARSADELRQQRDAIAEWSRLTYGWMGRTPDYKAAFGSALGANPGFYGRFEDNAKTWYKRIQEACLYLNHAIVNPPIDRDKPVDQVKDVFISVDEEVDGGIVVSGAKVVATNSALTHYNFVGQGSAQLLGDNTDFALMFIAPMNTPGMKLICRPSYELVAGIAGSPFDYPLSSRFDENDAILVMDKVFIPWENVLIYRDFERCKQWFPQGGFGRLFPMQGCTRLAVKLDFITGALYKALQCTGSLEFRGVQAQVGEVVAWRNLFWSLTDAMYGNASEWHGGAFLPSAEALQAYRVLAPQAYPEIKKTIEQVVASGLIYLPSGVRDLHNPQLDKYLSTYCRGSGGMGHRERIKILKLLWDAIGSEFGGRHELYEINYAGSQDEIRMQALRQAIGSGAMKGMLGMVEQCMGDYDENGWTVPHLHNPDDIN | failed
6 | MKLICYILLILLIPAIPVGAQTLSGGQVQVSNQSILISDNGQVMIGMDITLPAAMELSSNCVATLTPVLKTQDNSYNRILPAIWVYGRIRSIVQQRERSIPSDAYTILRRKNGTEQTVNYSARIPYEKWMNGAELELQAAIRGCADCQKEENSAFITRANLERYVVKPVVAFVSPAVEAVKNRAEEGRAYLDFPVNQMNIYPDYRRNPSELAAIKHTVDVVKNDVNTTITEIAIVGYASPEGRYAANARLAQGRAEALKSYVMNEYGFKADLFKVNSVPEDWAGLRAYVAKNDLPLKEEILSIIDKNESDFDVKEERIKALDGGKVYAALLQDCYPALRHSDYTVRYVVRGFDVEEAKQIIKLRPQQLSLQEMFLVAQTYEKGSDEFNEVFDVAVRMFPDDPTANINAAAIELQRGDLQQAVRYLDKADAQASATLNNRGVLKLLQGDLDSAENYFKQAQAKDSVEAGANLEEVTNKRKDEAIFVK | failed
7 | MPTDDIVQLLKGQEEAWNRGDLDAYMQGYWQNEQLMLISNGKFRNGWDETLAAYKKNYPDKESLGELKFTIKEIKMLSNYAAMVVGRWDLKRLKDTPTGVFTLLVEKIDDRWVITMDHSSD | not failed
8 | MKEQYRNQNTFLSMIDMDLIRRGLLHAIQDLVFIVKVMDDETFTYIYVNKIGMDYAKLSEECYGKTFSEVLPKDTAEILQVQYAKVASEVKAHTFCDVVSLPTGNLHYESSLNPVFDEEGVCQFIICITRDIT | failed
9 | ARNGDDCPLGPGRCCRLHTVRASLEDLGWADWVLSPREVQVTMCIGACPSQFRAANMHAQIKTSLHRLKPDTEPAPCCVPASYNPMVLIQKTDTGVSLQTYDDLLAKDCHCI | failed
10 | MARVAIPSVGKDLSSMVSDRFARAEYFIIYDTESGNVEVVENTIADAHGTGPKVVQSLVSKGVEYLIASNVGRNAFETLKAAGVKVYRFEGGTVQEAIDAFSEGRLEELTTFTREG | not failed
11 | MSENENSQEKNELLDALNSVEEVNVGDVVKGEVLAIDDDKQVIVGIQGTGVEGVVPLKELSTQRVDDVNEAAKVGDVLDLVVISRIGSDKENGSYLLSHRRLEARKVWDDVEKEYEAGHTIKAPVTQVVKGGLVVDAGVRGFIPASMIDDHYVEDLNAYKGQELELKIIEIEPSENRLILSHRAVVEKQREAQREEALKTLQAGDVVEGKVARLTNFGAFVDLGGIDGLVHVSEISYERVEKPADVLKVGQEVTVKILSVDADRERVSLSIKATLPEPWDGIEEKAPQGAVLDGKVKRLTSFGAFVEVFPGVEGLVHISQISHQHIATPNDVLKVGQEIKVKVLDVRPDEKRLALSIKALEEKPQTADDDNESQPERRSNNNRRRNNNRDNRTASERSTANAPEESTGFTLGDLIGDELKNAESNNDENLEHHHHHH | failed
12 | MAYGKAHLEAQLKRALAEEIQALEDPRLFLLTVEAVRLSKDGSVLSVYVEAFREEEGALRALSRAERRLVAALARRVRMRRLPRLEFLPWRASPA | not failed
13 | MHYRWTLLTLAASLLCVPSASGLAEFGIEGMGVVSTPANEARATLSPDGQRIVWASDRTGGTGGWDLWQAQLRGGRWQDAQPLPINTAQDETTPLFSADGRWLLFASTRPGGAGGSDLYRAPVDAQGAVGPVQSLGAAIDSAGNERAPTLSLDGTRLLFASDGHGGAGGMDLFVAHWDGQAFTAPVALVDINSAADELDAAWLGDGRALVWARGKTDDPSQLLLAICKDGHFVQGSPLPLSFNGPQERTFGAVVDTAKPGELLVTGSARAPRAGQLDIYRMKAPAADGDASCR | failed
14 | MAKNKLLRMDNVSIVVESLDNAISFFEEIGLNLEGRANVEGEWAGRVTGLGSQCVEIAMMVTPDGHSRIELSRFLTPPTIADHRTAPVNALGYLRVMFTVEDIDEMVSRLTKHGAELVGEVVQYENSYRLCYIRGVEGILIGLAEELGNK | not failed
15 | MNEVKSLTTAEGPTKLLNLQLKDLGDSLIDVALWGKLAEDVYSNIKSQPSGPVFSSWKFDEDFAISRHSSKLKIYNKSLYPFSTTRDSSVSRSFNCFGETPQELLDLGGRNYVFKIMVKHEAKHNQSSTYKMISLTDVLNVIQSFFESASTLNDIEQEIITVSGNSVGTSIGTTTQAEINFVDVDNLDNNEDNAYYISTPKPITKRFLATSKHVQQSSTKP | not failed
16 | MTAVQLMELDSCTRCGECVKWCPTYAASGQKPGLAPRDKILRWRQYMNKSYGLKAKLFGPTEIPQSELEEFKDDVHGCTTCGICATVCESGINTVELWESLRTNLVKKGIGPFGKQGMFPKLEHHHHHH | failed
17 | MSKFTDRIKNVFTVDYDDYDEDYYDDYEDDDMGLEPEKPEKKERATKSRSERFSARRAATRSDDDIIDDYDEVTAEHEEEPAPHVKTRATARAVKNSRSSRNHKVVPMKSSSEMEVCVIKPSYYENTRDIIDTLLEGKSVVLNLEGMKLDLAQRIVDSVSGGCYAIQGNLQKISGYIYLVTPHSVDITGDFQDLVHDSSDYSSTAYSRRNY | failed
18 | MPAIMPMLWKQPFGNNLWGLKMKKVEKLLIIGIVLISSILLGAMTLAKPAQANASIVIVIDNEVKHRIPLMVEEEMQTYEFKFGEQTGYLEVKNGKVRMLEMPKEICPEGICSETGWIARSSQAIVCLPNKIIVTIQGLDDKNDEIL | failed
19 | ANMHIFENPSALAEALADDVGARLAAAIAARGTASLAVSGGSTPKAFFRSLSRRELDWSKVTVTLVDERFVPPENDRSNHRLVADNLLKDGAAEARFVPLYQAAETAEAAAAIASGRTASLGAPLDVVVLGMGTDGHTASFFPGGTRLEEALDPTTPRGVITMEAEGAGEPRLTFTFSSLQDAGYLVLHIEGSGKKEVLAQAEASGDEAEMPIRAMLRRAASPLQIYWAP | failed
20 | EITSANTEWFFNPNAYVIIAESVESGKIVGGARIHIVGGTQPLPIEDAIGKMDPHIYKLVEEHGKKGSGELCGLWNAREVAGMGISTMLTRAAIALAIQLNLSTLFVICAERTYQNIFKDQGFEIIP | failed
21 | MSSLLGTFLYTLETTLPVFAMVFIGIGLRRIGWIDQGFIATASALVFKATLPTLVFLSIIRADLDTTLSISMLIFYFLATLASFALVWFWATKRVRQEDRGVYVQGAFRGNCGIVGLALAANLYGDYGLSAGGLLLGLVIVVYNSLSVIVLLAYQPGKTMSLSNTLRDIARNPLIIGVVLAIPFAAFEITLPGWVMTSGDYFASLTLPLALLCIGATVSLKSIRSDSGPAMGSSIWKMVSLPALCTLVAWLAGFEGRELGLMFLFFASPTAAASFVMVKALGGNDRMAANIIALTTLLASVTVTTGVFVLQSIGVA | failed
22 | METLDNHDQGFCRQVPRQAVCGFSRRTGWGGAAIFVMLMTLALAAPVQAQSLRQGVSAYQRQDYVAASRIFIPLAERGNAAAQTYLGLLFETGRGLPQNYTEAAMWYRRAAEQGDSRAQYSLGLLYDRGFGVPQDVVEASKWLNLSTAAAPPRAREARVRIRDAVTTKMTRGEIAQARLRALEWAPSREH | failed
23 | MSGRHLMYLDYLVPSWHEIESRVIAMVGYQSGGQFRTSLNEEVASLGLNLRRIEAVRTAFYHAEWQAAHMLRQRFADLDINSIIDELLRVVQQMAMIVVGSTITGGLLGATVGAFAGGAGTIPLAGAGAVMGLKVSGWILGALGLASIAEFFVEGLPRIGG | failed
24 | MNTHQNRYSVQSKVSALINCRLFQSFITTVIVLNAISIGLETYAFFKPYQKVFFIVDCLFLTIFVIELSLKLFVQKQHFFKNNWNVFDFVIVAGSLILYNTNFVSVLRIFRVLRVLRTITSVPSLRRIVNALFMAIPTISSVIILMSIIFYVYAVIGTMFFSAIAPEYFGNLQLSLLTLFQTFTLESWASGIFRPIFAESGWSWLYFVSFIVIATFIMINLIVGEIVNNAQKISQEIEDETGELKEDTKEIKELRAEVKELKALLQTYITQNEKKD | failed
25 | MESPPMFNSVEDECRYWKERSKQYHKEWTDVKQEYDEFVEQSREMEIEMDATLDQKQSIIKDLTAKLTMFERENESLKLKLESHGIDMSNMEKQLETVKKDRDTMKVYLRQLEQKNDDLERAHRILNESIENFEKMLDQAYEKNALLELEVDEKGLLQEKLQRLMDETRDLKQELNVKSRFTPVVNGTSVPTANDTNTVNSSMNSSASLPNGIVANGELVKHDNAVATRATSVSVNALNGSLVNRNEYNQQHSLKSDGDETEDVPREWSANAAATPLLPAIHTSGAGRTALLLAGCRVVWILQFSVIHKPQIRNPIT | failed
